The values below come from patent US7868138B2, “Methods for generating polynucleotides having desired characteristics by iterative selection and recombination” (priority 1994, dated 2011).

The test system of one test is CHO cells. Description: Fluorescence spectroscopy of CHO cells expressing GFP. The class given is cell-based, chinese hamster. The conditions noted are these: 2 mM sodium butyrate, 'wt' construct. How it is done: The wildtype and the cycle 2 and 3 mutant versions of the GFP gene were transferred into the eukaryotic expression vector Alpha+ (16) as an EcoRI-XbaI fragment. The plasmids were transfected into CHO cells by electroporation of 10^7 cells in 0.8 ml with 40 μg of plasmed at 400V and 250 μF. Transformants were selected using 1 mg/ml G418 for 10-12 days.
Improvements in autonomous characteristics such as self-folding can be tranferable to different cellular environments. After being selected in bacteria, the ‘cycle 3’ mutant GFP was transferred into the eukaryotic Alpha+ vector and expressed in chinese hamster ovary cells (CHO). […] FACS sorting confirmed that the average fluorescence signal of CHO cell clones expressing ‘cycle 3’ was 46-fold greater than cells expressing the ‘wt’ construct (FIG. 18B).

The subject of another test is E. coli XL1-blue cells. Description: Minimum inhibitory concentration (MIC) of cefotaxime by plating on cefotaxime plates. The class given is cell-based. How it is done: The minimum inhibitory concentration (MIC) of cefotaxime on bacterial cells lacking a plasmid was determined by plating 10 μl of a 10^−2 dilution of an overnight bacterial culture (about 1000 cfu) of E. coli XL1-blue cells (Stratagene, San Diego Calif.) on plates with varying levels of cefotaxime (Sigma, St. Louis Mo.), followed by incubation for 24 hours at 37° C.
Growth on cefotaxime is sensitive to the density of cells, and therefore similar numbers of cells needed to be plated on each plate (obtained by plating on plain LB plates). Platings of 1000 cells were consistently performed.
Growth on cefotaxime is dependent on the cell density, requiring that all the MICs be standardized (in our case to about 1,000 cells per plate). […] The 5 largest colonies grown at […] were plated for single colonies twice, and the Sfi1 inserts were analyzed by restriction mapping of the colony PCR products.
After selection, the plasmid of selected clones was transferred back into wild-type E. coli XL1-blue cells (Stratagene, San Diego Calif.) to ensure that none of the measured drug resistance was due to chromosomal mutations.

For `CCCC(=O)[O-].[Na+]` [sodium butyrate], the “increase of the fluorescence signal” value in the test on CHO cells is given as 4-8 fold.

B1: TEM-1: wild-type bacterial TEM-1 betalactamase, gene on a pUC18 derivative (protein, UniProt P62593 24-286, looked up)
Beta-lactamase TEM: HPETLVKVKDAEDQLGARVGYIELDLNSGKILESFRPEERFPMMSTFKVLLCGAVLSRVDAGQEQLGRRIHYSQNDLVEYSPVTEKHLTDGMTVRELCSAAITMSDNTAANLLLTTIGGPKELTAFLHNMGDHVTRLDRWEPELNEAIPNDERDTTMPAAMATTLRKLLTGELLTLASRQQLIDWMEADKVAGPLLRSALPAGWFIADKSGAGERGSRGIIAALGPDGKPSRIVVIYTTGSQATMDERNRQIAEIGASLIKHW
The MIC is the lowest concentration that inhibits growth of the organism. The low end stands for a more susceptible organism, the high end for a less susceptible organism. B1: the “minimum inhibitory concentration of cefotaxime” value in the test with E. coli XL1-blue cells (24 hours at 37° C., about 1,000 cells per plate) is “approximately 0.02 μg/ml”. Besides, the MIC in the test with E. coli XL1-blue cells (cefotaxime, mutants in identical plasmid background pUC182Sfi, no literature source in table) stood at 0.02 µg/mL.
